Data reported in PMC6297244, “Synthesis and Kinetic evaluation of an azido analogue of methylerythritol phosphate: a Novel Inhibitor of E. coli YgbP/IspD” (Scientific Reports, 2018).

What was measured:
[1] = substrate: C[C@](O)(CO)[C@H](O)COP(=O)(O)O; experiment: Michaelis-Menten and bi-substrate steady-state kinetics (apparent Km), malachite green assay; assay type: biochemical, Escherichia coli; conditions: Mg2+ ([…] MgCl2 in assay); CTP as co-substrate sequential mechanism; ternary complex with CTP
[2] = substrate: Nc1ccn([C@@H]2O[C@H](COP(=O)(O)OP(=O)(O)OP(=O)(O)O)[C@@H](O)[C@H]2O)c(=O)n1; experiment: as above; assay type: biochemical, Escherichia coli; conditions: Mg2+ ([…] MgCl2 in assay); MEP as co-substrate CTP-binding pocket; sequential mechanism

B1: YgbP/IspD (Escherichia coli K-12) (protein)
chain: ATTHLDVCAVVPAAGFGRRMQTECPKQYLSIGNQTILEHSVHALLAHPRVKRVVIAISPGDSRFAQLPLANHPQITVVDGGDERADSVLAGLKAAGDAQWVLVHDAARPCLHQDDLARLLALSETSRTGGILAAPVRDTMKRAEPGKNAIAHTVDRNGLWHALTPQFFPRELLHDCLTRALNEGATITDEASALEYCGFHPQLVEGRADNIKVTRPEDLALAEFYLTRTIHQENT
[1]
  Km: 40 ± 7 µM
[2]
  Km: 84 ± 9 µM
